Where a chain is given by its changes, count along the chain named. In names and notes the source's numbering stands. Several values for one entry are separate records, joined by “and”; a condition that tells them apart may be missing. Equal values may be shown once. Read-outs that look alike come from different tables or passages of the source.
T1: SmcR WT (Vibrio vulnificus, UniProt Q9L8G8 1-205)
T1 sequence: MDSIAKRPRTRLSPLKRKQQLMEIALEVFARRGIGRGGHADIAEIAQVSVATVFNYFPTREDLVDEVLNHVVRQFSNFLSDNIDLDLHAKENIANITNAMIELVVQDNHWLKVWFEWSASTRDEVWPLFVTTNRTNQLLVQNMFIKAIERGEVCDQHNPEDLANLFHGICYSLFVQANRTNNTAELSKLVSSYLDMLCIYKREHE

T2: SmcR N55I (Vibrio vulnificus, UniProt Q9L8G8 1-205, N55I)
T2 sequence: T1 sequence with N55I

T3: SmcR N142D (Vibrio vulnificus, UniProt Q9L8G8 1-205, N142D)
T3 sequence: T1 sequence with N142D

T4: SmcR S76A (Vibrio vulnificus, UniProt Q9L8G8 1-205, S76A)
T4 sequence: T1 sequence with S76A

T5: SmcR L139R (Vibrio vulnificus, UniProt Q9L8G8 1-205, L139R)
T5 sequence: T1 sequence with L139R

B1: PluxC site E T4A (JDN44/JDN45) (dsDNA)
DNA 1: TCTAATTATAGTTTGATTTATTAATAATTAGT
DNA 2: ACTAATTATTAATAAATCAAACTATAATTAGA
B2: PluxC site E T4A,A17T (JCV1107/JCV1108) (dsDNA)
DNA 1: B1 DNA 1 with A10T
DNA 2: B1 DNA 2 with T23A
B3: PluxC site E A17T (JDN46/JDN47) (dsDNA)
DNA 1: B1 DNA 1 with A10T, A23T
DNA 2: B1 DNA 2 with T10A, T23A
B4: SmcR wild-type, untagged (Vibrio vulnificus) (natural protein)
chain: T1 sequence
B5: SmcR wild-type, 6Xhis-tagged (Vibrio vulnificus) (natural protein)
chain: T1 sequence
B6: SmcR N55I, untagged (Vibrio vulnificus) (natural protein)
chain: T1 sequence with N55I
B7: PvvpE (AB324/AB325) (dsDNA)
DNA 1: ATAAATCAAATTTGTAACTTTATTTCTGAGATGACTGTCCCATTTATCTTATTGATAAATCTGCGTAAAAAAGAAAAAGCACAATTTTATTACTAGTGTTT
DNA 2: AAACACTAGTAATAAAATTGTGCTTTTTCTTTTTTACGCAGATTTATCAATAAGATAAATGGGACAGTCATCTCAGAAATAAAGTTACAAATTTGATTTAT
B8: PvvpM (AB316/AB317) (dsDNA)
DNA 1: ACACTTATCTTTAGTGACAAACTCATAAATAGCAAGTTCTCACACGGTC
DNA 2: GACCGTGTGAGAACTTGCTATTTATGAGTTTGTCACTAAAGATAAGTGT

Tests used:
SmcR WT = molecular target: T1, SmcR WT; experiment: EMSA
SmcR N55I = molecular target: T2, SmcR N55I; experiment: EMSA
[1] = molecular target: his-tagged V. harveyi RNAP alpha subunit (Vibrio harveyi, UniProt A0A0B4IMU9 1-330); experiment: BLI
SAXS [2] = molecular target: the molecule itself; experiment: SAXS
SAXS [3] = molecular target: the molecule itself; experiment: SAXS; remark: listed apart in the source
SmcR N142D = molecular target: T3, SmcR N142D; experiment: EMSA
SmcR S76A = molecular target: T4, SmcR S76A; experiment: EMSA
SmcR L139R = molecular target: T5, SmcR L139R; experiment: EMSA

| Binder | Kd (SmcR WT) [nM] | Kd (SmcR N55I) [nM] | other results |
| --- | --- | --- | --- |
| B1 | 1.53 | 13.4 | – |
| B2 | 2.04 | 1.91 | – |
| B3 | 2.71 | 44.6 | – |
| B4 | – | – | Kd [1]: 142 nM |
| B5 | – | – | stoichiometry N (SAXS [2]): 2 and 4 |
| B6 | – | – | Kd [1]: 160 nM; stoichiometry N (SAXS [3]): 2 and 4 |
| B7 | 2.18 | 142 | Kd (SmcR N142D): 6.68 nM; Kd (SmcR S76A): 0.363 nM; Kd (SmcR L139R): 3.53 nM |
| B8 | 0.143 | 0.266 | Kd (SmcR N142D): 0.568 nM; Kd (SmcR S76A): 0.167 nM; Kd (SmcR L139R): 0.322 nM |
